Experimental data as given in doi:10.1101/803361.

Tests used:
[1] = target: T1, Human heat shock transcription factor 1 (Hsf1), wild type (human), Q00613; experiment: SEC + native gel or EMSA; conditions: remark: other sources report otherwise
T1 chain: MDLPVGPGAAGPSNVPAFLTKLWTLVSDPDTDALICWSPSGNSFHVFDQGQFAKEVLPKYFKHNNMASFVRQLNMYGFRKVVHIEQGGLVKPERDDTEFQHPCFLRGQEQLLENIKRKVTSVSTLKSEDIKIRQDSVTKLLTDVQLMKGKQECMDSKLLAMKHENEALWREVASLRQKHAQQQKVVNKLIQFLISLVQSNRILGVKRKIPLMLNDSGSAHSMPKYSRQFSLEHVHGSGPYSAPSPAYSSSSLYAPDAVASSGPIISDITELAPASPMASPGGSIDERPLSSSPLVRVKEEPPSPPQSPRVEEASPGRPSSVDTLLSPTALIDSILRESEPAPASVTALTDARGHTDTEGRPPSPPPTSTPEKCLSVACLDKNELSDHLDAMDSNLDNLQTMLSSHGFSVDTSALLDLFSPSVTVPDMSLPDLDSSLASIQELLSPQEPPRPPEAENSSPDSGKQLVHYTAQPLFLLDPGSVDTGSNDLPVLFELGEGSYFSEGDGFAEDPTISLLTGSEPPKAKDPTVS

[2] = target: T1, Human heat shock transcription factor 1 …; experiment: native gel or EMSA; conditions: remark: other sources report otherwise

B1: Human heat shock transcription factor 1 (Hsf1), wild type, Q00613 1-529 (natural protein)
chain: T1 chain
[1]
  stoichiometry N: 3
[2]
  stoichiometry N: > 3
